Assay results taken from patent US12202907B2, “Nucleic acids encoding and methods of producing proteins comprising antibody chains” (Innate Pharma, priority 2018, dated 2025).
“Also recorded” adds a separate entry of the source.

Columns and labels:
[1] = target: T1, CHO cells expressing human CD39 (Homo sapiens, UniProt P49961); assay: Antibody titration on CHO-huCD39 by flow cytometry; format: binding; conditions: qualitative
T1 construct: expressed in transfected cells; host or cells: CHO
T1 sequence (P49961 1-510): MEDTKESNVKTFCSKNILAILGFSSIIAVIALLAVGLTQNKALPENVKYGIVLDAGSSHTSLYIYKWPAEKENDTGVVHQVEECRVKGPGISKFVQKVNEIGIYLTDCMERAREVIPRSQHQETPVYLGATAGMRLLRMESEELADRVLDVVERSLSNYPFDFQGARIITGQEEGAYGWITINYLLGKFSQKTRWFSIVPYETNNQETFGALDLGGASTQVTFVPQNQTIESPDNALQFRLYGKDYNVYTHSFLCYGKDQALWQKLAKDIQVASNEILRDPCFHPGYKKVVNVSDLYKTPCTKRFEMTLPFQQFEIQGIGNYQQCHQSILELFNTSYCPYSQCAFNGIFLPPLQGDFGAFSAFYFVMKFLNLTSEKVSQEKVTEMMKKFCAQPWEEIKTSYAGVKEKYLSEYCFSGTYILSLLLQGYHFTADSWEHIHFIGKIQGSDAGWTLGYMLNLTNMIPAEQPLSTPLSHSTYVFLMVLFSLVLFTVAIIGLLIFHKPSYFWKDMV
Experimental: Antibody I-394 was tested in two repeated experiments for binding to CHO cells expressing human CD39, CHO cells expressing cynomolgus (Macaca fascicularis) CD39, CHO cells expressing murine CD39, and human Ramos lymphoma cells (ATCC™, reference CRL-1596). Cells were incubated with various concentration of unlabeled anti-CD39 antibody from 30 μg/ml to 5×10^−4 μg/ml, for 30 minutes at 4° C. After washes, cells were incubated with Goat anti-mouse H+L labeled secondary antibody for 30 min at 4° C.

[2] = Aggregation temperature (thermal shift stability assay); format: physicochemical; conditions: human IgG1 with L234A/L235E/G237A/A330S/P331S
Experimental: Antibodies mAb1-24 and prior art anti-CD39 antibody BY40, all produced as human IgG1 isotypes with L234A/L235E/G237A/A330S/P331S substitutions were tested for stability in the following reference formulation at a concentration of approximatively 7 mg/mL: pH 6.0; histidine buffer (10 mM); sucrose (200 mM); NaCl (50 mM); Polysorbate 80 (PS80) (0.2 g/L). The stability of the formulations was monitored in two storage conditions (at +5° C.±3° C. and at +40±3° C. For each study, 3 time points were performed: T0, T15D (15 days) and T1M (1 month). A freeze thaw (F/T) and a thermal shift stability assay (TSSA) were conducted for the format comparison. To perform F/T cycles, the samples were frozen at least 2 hours at −20° C. and thawed at least 1 hour at room temperature, the F/T cycle is repeated three times and samples are tested 24 h after the last Freeze/Thaw cycle. At each time point, the following tests were performed: • Particulate Matter (MFI) • Visual Inspection (Appearance) • Impurities (SE-HPLC) • Turbidity (400 nm) • Protein Concentration (280 nm) (performed with Nanodrop, Thermo Fisher Scientific Inc.)

[3] = target: T2, soluble recombinant human CD39 protein (Homo sapiens, UniProt P49961); assay: Inhibition of the enzymatic activity of soluble CD39 (Cell Titer Glo, cell-free); format: biochemical
T2 construct: made in house; host or cells: CHO cells
T2 sequence (P49961 with tags, fused parts or gaps): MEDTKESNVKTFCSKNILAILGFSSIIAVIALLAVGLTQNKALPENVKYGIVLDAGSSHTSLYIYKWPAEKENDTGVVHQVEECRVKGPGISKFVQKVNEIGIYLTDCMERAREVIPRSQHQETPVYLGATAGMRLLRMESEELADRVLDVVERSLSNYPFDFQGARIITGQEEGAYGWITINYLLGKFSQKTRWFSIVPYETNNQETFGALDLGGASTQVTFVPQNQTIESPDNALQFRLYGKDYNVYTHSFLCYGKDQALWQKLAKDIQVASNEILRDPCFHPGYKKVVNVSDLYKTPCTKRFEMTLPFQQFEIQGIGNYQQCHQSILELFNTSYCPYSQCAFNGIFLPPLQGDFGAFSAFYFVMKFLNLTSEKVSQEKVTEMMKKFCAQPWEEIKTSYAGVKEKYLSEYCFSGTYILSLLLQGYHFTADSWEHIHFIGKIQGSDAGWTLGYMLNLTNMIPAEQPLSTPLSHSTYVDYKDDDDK
Experimental: The inhibition by antibodies of the enzymatic activity of soluble CD39 protein produced was evaluated using Cell Titer GIo™ (Promega, reference G7571) that allows assessment of ATP hydrolysis through use of a reagent that generates a luminescent signal proportional to the amount of ATP present. In this way, inhibition of the soluble-CD39-meidated ATP hydrolysis can be assessed. Briefly, dose ranges of anti-CD39 antibodies from 100 μg/ml to […] were incubated with 400 ng/ml of soluble recombinant human CD39 protein having the amino acid sequence described in the Methods section (SEQ ID NO: 44), for 1 h at 37° C. 20 μM ATP was added to the plates for 30 additional minutes at 37° C. before addition of CTG (Cell Titer Glo) reagent. Emitted light was quantified using an Enspire™ luminometer after a short incubation period of 5 min in the dark. Anti-CD39 antibody efficacy was determined by comparing emitted light in presence of antibody with ATP alone (maximal light emission) and ATP together with soluble CD39 protein (minimal light emission).

[4] = test system: cynomolgus CD39 expressing CHO cells (CHO-cyCD39); assay: Inhibition of the enzymatic activity of cellular CD39 in CHO-cyCD39; format: cell-based, cynomolgus (Macaca fascicularis); conditions: qualitative
Experimental: The inhibition of the CD39 enzymatic activity in CD39-expressing cells by antibodies was evaluated using Cell Titer GIo™ (Promega, reference G7571) that allows assessment of ATP hydrolysis through use of a reagent that generates a luminescent signal proportional to the amount of ATP present. The assay was thus designed to permit assessment of the inhibition of ATP hydrolyzed by CD39 in the cell culture supernatant. Briefly, 5×10^4 Ramos human lymphoma cells, 5×10^3 human CD39−, cynomolgus CD39—and mouse CD39− expressing CHO cells, were incubated 1 hour at 37° C. with anti-CD39 antibodies from 30 μg/ml to 5×10^−4 μg/ml. Cells were then incubated with 20 μM ATP for 1 additional hour at 37° C. Plates were centrifuged for 2 min at 400 g and 50 μl cell supernatant are transferred in a luminescence microplate (white wells). 50 μl CellTiter-Glo™ Reagent (CTG) was added to the supernatant and emitted light was quantified after a 5 min incubation in the dark using a Enspire™ luminometer. Anti-CD39 antibody efficacy was determined by comparing emitted light in presence of antibody with ATP alone (maximal light emission) and ATP together with cells (minimal light emission).

binding to cells expressing human CD39 (CHO-huCD39) [1]: bound
inhibition maximum, soluble CD39 [3]: 74.9%
potency ranking for inhibition of soluble CD39 ([3]; FIG. 2B, comparison of BY40, I-394, I-395, I-396): greatest potency
Substance: I-394: anti-CD39 antibody, VH SEQ ID NO: 6, VL SEQ ID NO: 7, human IgG1 Fc with L234A/L235E/G237A/A330S/P331S
Aggregation temperature (TAgg) [2]: ~70 °C
inhibition of the enzymatic (ATPase) activity of soluble CD39 protein ([3]; qualitative): strong inhibition of the enzymatic activity of soluble CD39; also recorded: inhibits the enzymatic activity of soluble CD39 protein
blocking CD39 enzymatic activity in CHO-cyCD39 [4]: blocks CD39 enzymatic activity
